64 variants from the RNAGym collection of RNA variant scans (doi:10.7554/elife.80360) can be followed below.

B1: HDV Ribozyme (parent)
chain: GGCCGGCAUGGUCCCAGCCUCCUCGCUGGCGCCGGCUGGGCAACAUUCCGAGGGGACCGUCCCCUCGGUAAUGGCGAAUGGGACCCA

This data set covers variants of B1. Nature of the data set: self-cleavage, relative activity (ratio to wild type); higher = more cleavage; co-transcriptional.
Regarding GGCCGGGAUAGUCCCAGCCUCCUCGCUGGCGCCGGCUGGGCAACAUUCCGAGGGGACCGUCCCCUCGGUAAUGGCGAAUGGGACCCA, the self-cleavage came out at 0.128.

As to GGCCGGGAUGGUCCCAGCCUACUCGCUGGCGCCGGCUGGGCAACAUUCCGAGGGGACCGUCCCCUCGGUAAUGGCGAAUGGGACCCA, the self-cleavage amounted to 0. In the case of GGCCGGGAUGGUCCCAGCCUGCUCGCUGGCGCCGGCUGGGCAACAUUCCGAGGGGACCGUCCCCUCGGUAAUGGCGAAUGGGACCCA it was 0. Take GGCCGGGAUGGUCCCAGCCUCCUCGCUGGCGCCGGCUGGGCAACAUUCCGAGGGGACGGUCCCCUCGGUAAUGGCGAAUGGGACCCA: the self-cleavage stood at 0.293. Regarding GGCCGGGAUGGUCCCAGCCUCCUCGCUGGCGCCGGCUGGGCAACAUUCCGAGGGGACAGUCCCCUCGGUAAUGGCGAAUGGGACCCA, the self-cleavage was found to be 0.506. Consider GGCCGGGAUGGUCCCAGCCUCCUCGAUGGCGCCGGCUGGGCAACAUUCCGAGGGGACCGUCCCCUCGGUAAUGGCGAAUGGGACCCA, for which the self-cleavage turned out to be 0.138. In the case of GGCCGGGAUGGUCCCAGCCUCCUCGGUGGCGCCGGCUGGGCAACAUUCCGAGGGGACCGUCCCCUCGGUAAUGGCGAAUGGGACCCA, the self-cleavage was 0.369.

As for GGCCGGGAUGGUCCCAGCCUCCUCGCUGGCGCCGUCUGGGCAACAUUCCGAGGGGACCGUCCCCUCGGUAAUGGCGAAUGGGACCCA, the self-cleavage came to 0.0811. As to GGCCGGGAUGGUCCCAGCCUCCUCGCUGGCGCCGGCUGGGGAACAUUCCGAGGGGACCGUCCCCUCGGUAAUGGCGAAUGGGACCCA, the self-cleavage was found to be 0.128. Take GGCCGGGAUGGUCCCAGCCUCCUCGCUGGCGCCGGCUGGGUAACAUUCCGAGGGGACCGUCCCCUCGGUAAUGGCGAAUGGGACCCA: the self-cleavage worked out at 0.0615. In the case of GGCCGGGAUGGUCCCAGCCUCCUCGCUGGCGCCGGCUGGGAAACAUUCCGAGGGGACCGUCCCCUCGGUAAUGGCGAAUGGGACCCA it was 0; in that of GGCCGGGAUGGUCCCAGCCUCCUCGCUGGCGCCGGCUGGGCAACAUUCCGAGGGGACCGUCCCCUCGGUAAUGGUGAAUGGGACCCA, 0; in that of GGCCGGGAUGGUCCCAGCCUCCUCGCUGGCGCCGGCUGGGCAACAUUCCGAGGGGACCGUCCCCUCGGUAAUGGAGAAUGGGACCCA, 0.

Consider GGCCGGGAUGGUCCCAGCCUCCUCUCUGGCGCCGGCUGGGCAACAUUCCGAGGGGACCGUCCCCUCGGUAAUGGCGAAUGGGACCCA, for which the self-cleavage worked out at 0.0831. As to GGCCGGGAUGGUCCCAGCCUCCUCGCUGGCGCCGGCUGGGCAACAUUCCGAGGGGACCGUCCCCUCGGUAAUGGCGAAUGGGAGCCA, the self-cleavage was 0.0665. Consider GGCCGGGAUGGUCCCAGCCUCCUCGCUGGCGCCGGCUGGGCAACAUUCCGAGGGGACCGUCCCCUCGGUAAUGGCGAAUGGGAUCCA, for which the self-cleavage was 0. For the variant GGCCGGGAUGGUCCCAGCCUCCUCGCUGGCGCCGGCUGGGCAACAUUCCGAGGGGACCGUCCCCUCGGUAAUGGCGAAUGGGACUCA, the self-cleavage came to 0.32. Consider GGCCGGGAUGGUCCCAGCCUCCUCGCUGGCGCCGGCUGGGCAACAUUCCGAGGGGACCGUCCCCUCGGUAAUGGCGAAUGGGACGCA, for which the self-cleavage stood at 0.237. The value for GGCCGGGAUGGUCCCAGCCUCCUCGCUGGCGCCGGCUGGGCAACAUUCCGAGGGGACCGUCCACUCGGUAAUGGCGAAUGGGACCCA was 0.172. Turning to GGCCGGGAUGGUCCCAGCCUCCUCGCUGGCGCCGGCUGGGCAACAUUCCGAGGGGACCGUCCGCUCGGUAAUGGCGAAUGGGACCCA, the self-cleavage amounted to 0.201. With GGCCGGGAUGUUCCCAGCCUCCUCGCUGGCGCCGGCUGGGCAACAUUCCGAGGGGACCGUCCCCUCGGUAAUGGCGAAUGGGACCCA, the self-cleavage came to 0.104. With GGCCGGGAUGGUCCCAGCUUCCUCGCUGGCGCCGGCUGGGCAACAUUCCGAGGGGACCGUCCCCUCGGUAAUGGCGAAUGGGACCCA, the self-cleavage was determined as 0. As for GGCCGGGAUGGUCCCAGCCUCCUCGCUGGCGCCGGCUGGGCAACAUUCCGAGGGGACCGUCCCGUCGGUAAUGGCGAAUGGGACCCA, the self-cleavage amounted to 0.111. In the case of GGCCGGGAUGGUCCCAGCCUCCUCGCUGGCGCCGGCUGGGCAACAUUCCGAGGGGACCGUCCCUUCGGUAAUGGCGAAUGGGACCCA it was 0.396. In the case of GGCCGGGAUGGUCCCAGCCUCCUCGCUGGCGCCGGCUGGGCAACAUUCCGAGGGGACCGUCCCAUCGGUAAUGGCGAAUGGGACCCA it was 0.0831; in that of GGCCGGGAUGGUCCCAGCCUCAUCGCUGGCGCCGGCUGGGCAACAUUCCGAGGGGACCGUCCCCUCGGUAAUGGCGAAUGGGACCCA, 0; in that of GGCCGGGAUGGUCCCAGCCUCCUCGCUGGCGCGGGCUGGGCAACAUUCCGAGGGGACCGUCCCCUCGGUAAUGGCGAAUGGGACCCA, 0.237.

Consider GGCCGGGAUGGUCCCAGCCUCCUCGCUGGCGCCGGCUGGGCAACAUUCCGAGGGGACCGUCCCCUCGGUAAUGGCGAAUGGGACCCG, for which the self-cleavage was 0.381. For GGCCGGGAUGGUCCCAGCCUCCUCGCUGGCGCCGGCUGGGCAACAUUCCGAGGGGACCGUCCCCUCGGUAAUGGCGAAUGGGACCCC, the self-cleavage was 0.211. GGCCGGGAUGGUCCCAGCCUCCUCGCUGGUGCCGGCUGGGCAACAUUCCGAGGGGACCGUCCCCUCGGUAAUGGCGAAUGGGACCCA: the self-cleavage was 0.138. The value for GGCCGGGAUGGUCCCAGCCUCCUCGCUGGGGCCGGCUGGGCAACAUUCCGAGGGGACCGUCCCCUCGGUAAUGGCGAAUGGGACCCA was 0.119; that for GGCCGGGAUGGUCCCAGCCUCCUCGCUGGCGUCGGCUGGGCAACAUUCCGAGGGGACCGUCCCCUCGGUAAUGGCGAAUGGGACCCA was 0.104; that for GGCCGGGAUGGUCCCAGCCUCCUCGCUGGCGGCGGCUGGGCAACAUUCCGAGGGGACCGUCCCCUCGGUAAUGGCGAAUGGGACCCA was 0.115. As for GGCCGGGAUGGUCCCAGCCUCCUCGCUGGCGCCGGCUGGGCAACAUUCCGAGGGGACCGUCUCCUCGGUAAUGGCGAAUGGGACCCA, the self-cleavage came out at 0.302.

In the case of GGCCGGGAUGGUCCCAGCCUCCUAGCUGGCGCCGGCUGGGCAACAUUCCGAGGGGACCGUCCCCUCGGUAAUGGCGAAUGGGACCCA, the self-cleavage stood at 0.208. With GGCCGGGAUGGUCCCAGCCUCCUGGCUGGCGCCGGCUGGGCAACAUUCCGAGGGGACCGUCCCCUCGGUAAUGGCGAAUGGGACCCA, the self-cleavage worked out at 0.123.

As to GGCCGGGAUGGUCCCAGCCUCCUCGCUGACGCCGGCUGGGCAACAUUCCGAGGGGACCGUCCCCUCGGUAAUGGCGAAUGGGACCCA, the self-cleavage came out at 0. The value for GGCCGGGAUGGUCCCAGCCUCCUCGCUGUCGCCGGCUGGGCAACAUUCCGAGGGGACCGUCCCCUCGGUAAUGGCGAAUGGGACCCA was 0. The value for GGCCGGGAUGGUCCCAGCCUCCUCGCUGGCGCCGGCUGGGCAACAUUCCGAGGGGACCGUCCCCUCGGUAAUGGCGAAUGGGACCGA was 0.378. For GGCCGGGAUGGUCCCAGCCUCCUCGCUGGCGCCGGCUGGGCAACAUUCCGAGGGGACCGUUCCCUCGGUAAUGGCGAAUGGGACCCA, the self-cleavage amounted to 0.237. Consider GGCCGGGAUGGUCCCAGCCUCCUCGCUGGCGCCGGCUGGGCAACAUUCCGAGGGGACCGUCCCCUCGGUAAUGGCGAAUGGGGCCCA, for which the self-cleavage came out at 0.17. In the case of GGCCGGGAUGGUCUCAGCCUCCUCGCUGGCGCCGGCUGGGCAACAUUCCGAGGGGACCGUCCCCUCGGUAAUGGCGAAUGGGACCCA it was 0.196; in that of GGCCGGGAUGGUCACAGCCUCCUCGCUGGCGCCGGCUGGGCAACAUUCCGAGGGGACCGUCCCCUCGGUAAUGGCGAAUGGGACCCA, 0.0923.

As for GGCCGGGAUGGUCCCAGCCUCCUCGCUGGCGCCGGCUGGGCAACAUUCGGAGGGGACCGUCCCCUCGGUAAUGGCGAAUGGGACCCA, the self-cleavage was determined as 0.123.

With GGCCGGGAUGGUCCCAGCCUCCUCGCUGGCGCCGGCUGGGCAACAUUCAGAGGGGACCGUCCCCUCGGUAAUGGCGAAUGGGACCCA, the self-cleavage is 0.145. Consider GGCCGGGAUGGUCCCAGCCUCCUCGCUGGCGCCGGCUGGGCAACAUUCUGAGGGGACCGUCCCCUCGGUAAUGGCGAAUGGGACCCA, for which the self-cleavage was 0.237.

Take GGCCGGGAUGGUCCCAGGCUCCUCGCUGGCGCCGGCUGGGCAACAUUCCGAGGGGACCGUCCCCUCGGUAAUGGCGAAUGGGACCCA: the self-cleavage came to 0. In the case of GGCCGGGAUGGUCCCAGACUCCUCGCUGGCGCCGGCUGGGCAACAUUCCGAGGGGACCGUCCCCUCGGUAAUGGCGAAUGGGACCCA it was 0.0639; in that of GGCCGGGAUGGUCCCAGCCUCCUCGCUGGCUCCGGCUGGGCAACAUUCCGAGGGGACCGUCCCCUCGGUAAUGGCGAAUGGGACCCA, 0.745; in that of GGCCGGGAUGGUCCCAGCCUCCUCGCUGGCGCCGGCUGGGCAACAUUACGAGGGGACCGUCCCCUCGGUAAUGGCGAAUGGGACCCA, 0.262. GGCCGGGAUGGUCCCAGCCUCCUCGCUGGCGCCGGCUGGGCAAGAUUCCGAGGGGACCGUCCCCUCGGUAAUGGCGAAUGGGACCCA: the self-cleavage stood at 0.0755. Consider GGCCGGGAUGGUCCCAUCCUCCUCGCUGGCGCCGGCUGGGCAACAUUCCGAGGGGACCGUCCCCUCGGUAAUGGCGAAUGGGACCCA, for which the self-cleavage was determined as 0. In the case of GGCCGGGAUGGUCCCAACCUCCUCGCUGGCGCCGGCUGGGCAACAUUCCGAGGGGACCGUCCCCUCGGUAAUGGCGAAUGGGACCCA, the self-cleavage stood at 0. In the case of GGCCGGGAUGGUCCCAGCCUCCUCGCUAGCGCCGGCUGGGCAACAUUCCGAGGGGACCGUCCCCUCGGUAAUGGCGAAUGGGACCCA it was 0.0536; in that of GGCCGGGAUGGUCCCAGCCUCCUCGCUCGCGCCGGCUGGGCAACAUUCCGAGGGGACCGUCCCCUCGGUAAUGGCGAAUGGGACCCA, 0; in that of GGCCGGGAUGGUCCCAGCCUCCUCGCUUGCGCCGGCUGGGCAACAUUCCGAGGGGACCGUCCCCUCGGUAAUGGCGAAUGGGACCCA, 0.0875. In the case of GGCCGGGAUGGUCCCAGCCUCCUCGCUGGCGCCAGCUGGGCAACAUUCCGAGGGGACCGUCCCCUCGGUAAUGGCGAAUGGGACCCA it was 0.115; in that of GGCCGGGAUGGUCCCAGCCUCCUCGCUGGCGCCUGCUGGGCAACAUUCCGAGGGGACCGUCCCCUCGGUAAUGGCGAAUGGGACCCA, 0.0504; in that of GGCCGGGAUGGUCCCAGCCUCCUCGCUGGCGCCGGCUGGGCAACAUUCCGAGGGGACCGUCCCCUAGGUAAUGGCGAAUGGGACCCA, 0.161. The value for GGCCGGGAUGGUCCUAGCCUCCUCGCUGGCGCCGGCUGGGCAACAUUCCGAGGGGACCGUCCCCUCGGUAAUGGCGAAUGGGACCCA was 0.0978; that for GGCCGGGAUGGUCCAAGCCUCCUCGCUGGCGCCGGCUGGGCAACAUUCCGAGGGGACCGUCCCCUCGGUAAUGGCGAAUGGGACCCA was 0; that for GGCCGGGAUGGUCCGAGCCUCCUCGCUGGCGCCGGCUGGGCAACAUUCCGAGGGGACCGUCCCCUCGGUAAUGGCGAAUGGGACCCA was 0. Take GGCCGGGAUGGUCCCAGCCUCCUCGCUGGCGCCGGCUGGGCAACAUUCCGAGGGGAUCGUCCCCUCGGUAAUGGCGAAUGGGACCCA: the self-cleavage worked out at 0.383. As for GGCCGGGAUGGUCCCAGCCUCCUCGCUGGCGCCGGCUGGGCAACAUUCCGAGGGGAGCGUCCCCUCGGUAAUGGCGAAUGGGACCCA, the self-cleavage stood at 0.208.
